This passage reports Kd results from US20250277020A1 (Boehringer Ingelheim, published 2025).

This assay addresses T1, Full-length human CTGF (human, UniProt P29279 27-349).
T1 construct: Corresponds to NCBI NP_001892.1 with the signal peptide omitted; purchased from R&D Systems; also called hCTGF full length; full length CTGF
T1 sequence: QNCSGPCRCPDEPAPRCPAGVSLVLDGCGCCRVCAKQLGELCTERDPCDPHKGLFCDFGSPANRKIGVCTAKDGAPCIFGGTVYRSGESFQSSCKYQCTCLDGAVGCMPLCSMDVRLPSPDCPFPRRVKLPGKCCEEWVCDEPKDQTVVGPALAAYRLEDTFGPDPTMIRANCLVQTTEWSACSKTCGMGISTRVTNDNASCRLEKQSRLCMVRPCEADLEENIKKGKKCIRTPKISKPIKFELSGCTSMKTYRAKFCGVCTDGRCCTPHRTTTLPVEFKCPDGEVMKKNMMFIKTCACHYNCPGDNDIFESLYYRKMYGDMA
The assay is described as follows: SPR, full length CTGF.

B1: A73 (antibody, human IgG1, kappa, L234A L235A, V domains shown)
VH: EVQLVESGGGLVQPGGSLRLSCAASGFTFSDYYMAWVRQAPGKGLEWVANINYEGSRTDLLESLKSRFTISRDNAKNSVYLQMNSLRAEDTAVYYCARDTSRGSYFDVWGAGTTVTVSS
VL: VVMTQTPLSLPVSLGDQASISCRSSQSIVHYNGKTYLEWYLQKPGQSPQLLIYKVSNRFSGVPDRFSGSGSGTDFTLKISRVEAEDLGVYYCFQGSHFPLTFGQGTKLEIKR
With B1, binding was put at a Kd of 580 pM. This lies in the sub-nanomolar range.

B2: A82 (antibody, human IgG1, kappa, L234A L235A, V domains shown)
VH: EVQLVESGGGLVQPGGSLRLSCAASGFTFSDYYMAWVRQAPGKGLEWVANINYYGSRTDLLESLKSRFTISRDNAKNSVYLQMNSLRAEDTAVYYCARDTSRGSYFDVWGAGTTVTVSS
VL: VVMTQTPLSLPVSLGDQASISCRSSQSIVHYNEKTYLEWYLQKPGQSPQLLIYKVSNRFSGVPDRFSGSGSGTDFTLKISRVEAEDLGVYYCFQGSHFPLTFGQGTKLEIKR
As for B2, the equilibrium dissociation constant (Kd) is 360 pM.

B3: A80 (antibody, human IgG1, kappa, L234A L235A)
light: VVMTQTPLSLPVSLGDQASISCRSSQSIVHYNGKTYLEWYLQKPGQSPQLLIYKVSNRFSGVPDRFSGSGSGTDFTLKISRVEAEDLGVYYCFQGSHFPLTFGQGTKLEIKRTVAAPSVFIFPPSDEQLKSGTASVVCLLNNFYPREAKVQWKVDNALQSGNSQESVTEQDSKDSTYSLSSTLTLSKADYEKHKVYACEVTHQGLSSPVTKSFNRGEC
heavy: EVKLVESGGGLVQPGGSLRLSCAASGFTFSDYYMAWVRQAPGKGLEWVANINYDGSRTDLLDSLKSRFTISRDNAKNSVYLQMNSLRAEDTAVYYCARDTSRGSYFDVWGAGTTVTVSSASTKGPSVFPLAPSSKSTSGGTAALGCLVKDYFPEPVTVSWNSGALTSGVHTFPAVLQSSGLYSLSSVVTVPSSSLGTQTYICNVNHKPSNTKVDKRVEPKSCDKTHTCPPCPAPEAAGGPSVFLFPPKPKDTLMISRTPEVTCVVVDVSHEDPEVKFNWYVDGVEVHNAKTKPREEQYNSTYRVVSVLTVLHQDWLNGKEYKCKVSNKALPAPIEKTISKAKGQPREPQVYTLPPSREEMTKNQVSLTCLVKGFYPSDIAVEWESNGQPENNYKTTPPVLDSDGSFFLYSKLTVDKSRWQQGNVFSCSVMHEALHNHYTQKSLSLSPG
Regarding B3, binding was characterised by a dissociation constant (Kd) of 250 pM.

B4: A91 (antibody, human IgG1, kappa, L234A L235A, V domains shown)
VH: EVQLVESGGGLVQPGGSLRLSCAASGFTFSDYYMAWVRQAPGKGLEWVANINYEGSRTDLLASLKSRFTISRDNAKNSVYLQMNSLRAEDTAVYYCARDTSRGSYFDVWGAGTTVTVSS
VL: VVMTQTPLSLSVSLGDQASISCKSSQSIVHYNGNTYLEWYLQKPGQSPQLLIYKVSSRFSGVPDRFSGSGSGTDFTLKISRVEAEDLGVYYCFQGSHFPLTFGQGTKLEIKR
In turn, B4 gave a dissociation constant Kd of 130 pM. Against the preceding molecule, the Kd is about 1.9-fold lower.

B5: A92 (antibody, human IgG1, kappa, L234A L235A, V domains shown)
VH: EVQLVESGGGLVQPGGSLRLSCAASGFTFSDYYMAWVRQAPGKGLEWVANINYYGSRTDLLASLKSRFTISRDNAKNSVYLQMNSLRAEDTAVYYCARDTSRGSYFDVWGAGTTVTVSS
VL: VVMTQTPLSLSVSLGDQASISCKSSQSIVHYNGNTYLEWYLQKPGQSPQLLIYKVSSRFSGVPDRFSGSGSGTDFTLKISRVEAEDLGVYYCFQGSHFPLTFGQGTKLEIKR
For the molecule B5, the affinity, expressed as Kd, was 160 pM.

B6: A93 (antibody, human IgG1, kappa, L234A L235A)
light: VVMTQTPLSLSVSLGDQASISCKSSQSIVHYNGNTYLEWYLQKPGQSPQLLIYKVSSRFSGVPDRFSGSGSGTDFTLKISRVEAEDLGVYYCFQGSHFPLTFGQGTKLEIKRTVAAPSVFIFPPSDEQLKSGTASVVCLLNNFYPREAKVQWKVDNALQSGNSQESVTEQDSKDSTYSLSSTLTLSKADYEKHKVYACEVTHQGLSSPVTKSFNRGEC
heavy: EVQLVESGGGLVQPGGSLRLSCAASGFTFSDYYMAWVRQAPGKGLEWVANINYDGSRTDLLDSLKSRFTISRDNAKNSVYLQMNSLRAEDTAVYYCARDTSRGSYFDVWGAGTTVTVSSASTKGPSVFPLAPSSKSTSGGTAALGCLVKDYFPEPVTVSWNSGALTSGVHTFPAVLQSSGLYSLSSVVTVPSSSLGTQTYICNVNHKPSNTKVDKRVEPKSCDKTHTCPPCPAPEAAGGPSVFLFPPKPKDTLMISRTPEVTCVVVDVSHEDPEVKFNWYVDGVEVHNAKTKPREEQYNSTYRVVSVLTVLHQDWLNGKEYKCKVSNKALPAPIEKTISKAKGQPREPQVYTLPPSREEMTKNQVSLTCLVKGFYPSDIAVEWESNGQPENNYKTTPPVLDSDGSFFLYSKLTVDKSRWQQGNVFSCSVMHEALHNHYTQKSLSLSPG
B6: the affinity, expressed as Kd, was 180 pM.

B7: A77 (antibody, human IgG1, kappa, L234A L235A)
light: VVMTQTPLSLPVSLGDQASISCRSSQSIVHYNGKTYLEWYLQKPGQSPQLLIYKVSNRFSGVPDRFSGSGSGTDFTLKISRVEAEDLGVYYCFQGSHFPLTFGQGTKLEIKRTVAAPSVFIFPPSDEQLKSGTASVVCLLNNFYPREAKVQWKVDNALQSGNSQESVTEQDSKDSTYSLSSTLTLSKADYEKHKVYACEVTHQGLSSPVTKSFNRGEC
heavy: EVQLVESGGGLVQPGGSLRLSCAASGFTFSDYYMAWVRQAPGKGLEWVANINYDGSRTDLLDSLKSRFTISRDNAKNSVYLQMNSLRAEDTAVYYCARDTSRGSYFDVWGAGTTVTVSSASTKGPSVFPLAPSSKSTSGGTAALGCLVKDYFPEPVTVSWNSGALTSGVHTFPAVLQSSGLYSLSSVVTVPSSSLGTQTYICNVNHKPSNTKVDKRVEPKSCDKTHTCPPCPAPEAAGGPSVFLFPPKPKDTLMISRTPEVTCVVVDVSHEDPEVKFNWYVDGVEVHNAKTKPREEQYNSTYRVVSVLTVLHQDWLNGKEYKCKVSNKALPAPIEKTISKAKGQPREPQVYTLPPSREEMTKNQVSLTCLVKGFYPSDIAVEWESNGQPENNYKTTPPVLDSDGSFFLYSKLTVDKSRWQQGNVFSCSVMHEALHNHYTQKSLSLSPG
Turning to B7, the dissociation constant Kd was 230 pM.

B8: A79 (antibody, human IgG1, kappa, L234A L235A, V domains shown)
VH: EVQLVESGGGLVQPGGSLRLSCAASGFTFSDYYMAWVRQAPGKGLEWVANINYDGSRTDLLESLKSRFTISRDNAKNSVYLQMNSLRAEDTAVYYCARDTSRGSYFDVWGAGTTVTVSS
VL: VVMTQTPLSLPVSLGDQASISCRSSQSIVHYNGKTYLEWYLQKPGQSPQLLIYKVSNRFSGVPDRFSGSGSGTDFTLKISRVEAEDLGVYYCFQGSHFPLTFGQGTKLEIKR
The molecule B8 yielded a Kd of 160 pM.

B9: A83 (antibody, human IgG1, kappa, L234A L235A, V domains shown)
VH: EVQLVESGGGLVQPGGSLRLSCAASGFTFSDYYMAWVRQAPGKGLEWVANINYEGSRTDLLASLKSRFTISRDNAKNSVYLQMNSLRAEDTAVYYCARDTSRGSYFDVWGAGTTVTVSS
VL: VVMTQTPLSLPVSLGDQASISCRSSQSIVHYNEKTYLEWYLQKPGQSPQLLIYKVSNRFSGVPDRFSGSGSGTDFTLKISRVEAEDLGVYYCFQGSHFPLTFGQGTKLEIKR
Molecule B9 showed a Kd of 260 pM.

B10: A78 (antibody, human IgG1, kappa, L234A L235A, V domains shown)
VH: EVQLVESGGGLVQPGGSLRLSCAASGFTFSDYYMAWVRQAPGKGLEWVANINYEGSRTDLLDSLKSRFTISRDNAKNSVYLQMNSLRAEDTAVYYCARDTSRGSYFDVWGAGTTVTVSS
VL: VVMTQTPLSLPVSLGDQASISCRSSQSIVHYNGKTYLEWYLQKPGQSPQLLIYKVSNRFSGVPDRFSGSGSGTDFTLKISRVEAEDLGVYYCFQGSHFPLTFGQGTKLEIKR
In the case of B10, binding was put at a Kd of 230 pM.

B11: A76 (antibody, human IgG1, kappa, L234A L235A, V domains shown)
VH: EVQLVESGGGLVQPGGSLRLSCAASGFTFSDYYMAWVRQAPGKGLEWVANINYYGSRTDLLASLKSRFTISRDNAKNSVYLQMNSLRAEDTAVYYCARDTSRGSYFDVWGAGTTVTVSS
VL: VVMTQTPLSLPVSLGDQASISCRSSQSIVHYNGKTYLEWYLQKPGQSPQLLIYKVSNRFSGVPDRFSGSGSGTDFTLKISRVEAEDLGVYYCFQGSHFPLTFGQGTKLEIKR
B11 showed a dissociation constant Kd of 180 pM. The Kd values of the last two molecules are within 1.5-fold of each other.

B12: A84 (antibody, human IgG1, kappa, L234A L235A, V domains shown)
VH: EVQLVESGGGLVQPGGSLRLSCAASGFTFSDYYMAWVRQAPGKGLEWVANINYYGSRTDLLASLKSRFTISRDNAKNSVYLQMNSLRAEDTAVYYCARDTSRGSYFDVWGAGTTVTVSS
VL: VVMTQTPLSLPVSLGDQASISCRSSQSIVHYNEKTYLEWYLQKPGQSPQLLIYKVSNRFSGVPDRFSGSGSGTDFTLKISRVEAEDLGVYYCFQGSHFPLTFGQGTKLEIKR
B12 came in with a Kd of 290 pM.

B13: A88 (antibody, human IgG1, kappa, L234A L235A)
light: VVMTQTPLSLPVSLGDQASISCRSSQSIVHYNEKTYLEWYLQKPGQSPQLLIYKVSNRFSGVPDRFSGSGSGTDFTLKISRVEAEDLGVYYCFQGSHFPLTFGQGTKLEIKRTVAAPSVFIFPPSDEQLKSGTASVVCLLNNFYPREAKVQWKVDNALQSGNSQESVTEQDSKDSTYSLSSTLTLSKADYEKHKVYACEVTHQGLSSPVTKSFNRGEC
heavy: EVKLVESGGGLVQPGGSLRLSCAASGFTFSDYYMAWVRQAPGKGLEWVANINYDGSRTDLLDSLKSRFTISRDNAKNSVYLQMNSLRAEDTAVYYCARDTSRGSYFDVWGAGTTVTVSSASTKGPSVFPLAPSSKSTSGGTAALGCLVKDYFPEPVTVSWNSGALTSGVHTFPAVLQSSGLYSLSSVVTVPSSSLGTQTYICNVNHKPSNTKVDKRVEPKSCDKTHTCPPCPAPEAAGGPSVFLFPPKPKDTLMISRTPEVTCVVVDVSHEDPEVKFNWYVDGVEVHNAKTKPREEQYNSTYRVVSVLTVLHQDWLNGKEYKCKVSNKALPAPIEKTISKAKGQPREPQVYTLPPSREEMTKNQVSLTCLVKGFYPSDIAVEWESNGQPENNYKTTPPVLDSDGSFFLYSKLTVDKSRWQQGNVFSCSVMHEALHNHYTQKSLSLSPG
Molecule B13 came in with an equilibrium dissociation constant (Kd) of 320 pM.

B14: A85 (antibody, human IgG1, kappa, L234A L235A)
light: VVMTQTPLSLPVSLGDQASISCRSSQSIVHYNEKTYLEWYLQKPGQSPQLLIYKVSNRFSGVPDRFSGSGSGTDFTLKISRVEAEDLGVYYCFQGSHFPLTFGQGTKLEIKRTVAAPSVFIFPPSDEQLKSGTASVVCLLNNFYPREAKVQWKVDNALQSGNSQESVTEQDSKDSTYSLSSTLTLSKADYEKHKVYACEVTHQGLSSPVTKSFNRGEC
heavy: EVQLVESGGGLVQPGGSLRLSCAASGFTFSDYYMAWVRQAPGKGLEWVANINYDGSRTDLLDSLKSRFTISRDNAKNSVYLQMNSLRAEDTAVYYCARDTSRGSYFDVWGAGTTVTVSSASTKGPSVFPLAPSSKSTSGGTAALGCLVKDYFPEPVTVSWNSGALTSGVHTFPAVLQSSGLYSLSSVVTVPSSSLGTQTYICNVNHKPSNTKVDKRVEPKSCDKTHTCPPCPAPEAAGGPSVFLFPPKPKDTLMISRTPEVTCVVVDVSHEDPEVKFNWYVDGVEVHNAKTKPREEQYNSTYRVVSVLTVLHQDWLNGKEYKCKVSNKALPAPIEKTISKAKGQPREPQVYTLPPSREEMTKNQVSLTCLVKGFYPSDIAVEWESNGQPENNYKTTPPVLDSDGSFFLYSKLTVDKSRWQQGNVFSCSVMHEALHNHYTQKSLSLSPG
The molecule B14 showed a dissociation constant (Kd) of 280 pM. The Kd values of the last two molecules are within 1.5-fold of each other.

B15: A74 (antibody, human IgG1, kappa, L234A L235A, V domains shown)
VH: EVQLVESGGGLVQPGGSLRLSCAASGFTFSDYYMAWVRQAPGKGLEWVANINYYGSRTDLLESLKSRFTISRDNAKNSVYLQMNSLRAEDTAVYYCARDTSRGSYFDVWGAGTTVTVSS
VL: VVMTQTPLSLPVSLGDQASISCRSSQSIVHYNGKTYLEWYLQKPGQSPQLLIYKVSNRFSGVPDRFSGSGSGTDFTLKISRVEAEDLGVYYCFQGSHFPLTFGQGTKLEIKR
The molecule B15 returned an equilibrium dissociation constant (Kd) of 200 pM.

B16: A90 (antibody, human IgG1, kappa, L234A L235A, V domains shown)
VH: EVQLVESGGGLVQPGGSLRLSCAASGFTFSDYYMAWVRQAPGKGLEWVANINYYGSRTDLLESLKSRFTISRDNAKNSVYLQMNSLRAEDTAVYYCARDTSRGSYFDVWGAGTTVTVSS
VL: VVMTQTPLSLSVSLGDQASISCKSSQSIVHYNGNTYLEWYLQKPGQSPQLLIYKVSSRFSGVPDRFSGSGSGTDFTLKISRVEAEDLGVYYCFQGSHFPLTFGQGTKLEIKR
Molecule B16 came in with a dissociation constant Kd of 170 pM. This Kd and that of the molecule before are within 1.5-fold of each other.

B17: A87 (antibody, human IgG1, kappa, L234A L235A, V domains shown)
VH: EVQLVESGGGLVQPGGSLRLSCAASGFTFSDYYMAWVRQAPGKGLEWVANINYDGSRTDLLESLKSRFTISRDNAKNSVYLQMNSLRAEDTAVYYCARDTSRGSYFDVWGAGTTVTVSS
VL: VVMTQTPLSLPVSLGDQASISCRSSQSIVHYNEKTYLEWYLQKPGQSPQLLIYKVSNRFSGVPDRFSGSGSGTDFTLKISRVEAEDLGVYYCFQGSHFPLTFGQGTKLEIKR
B17 came in with a Kd of 340 pM.

B18: A89 (antibody, human IgG1, kappa, L234A L235A, V domains shown)
VH: EVQLVESGGGLVQPGGSLRLSCAASGFTFSDYYMAWVRQAPGKGLEWVANINYEGSRTDLLESLKSRFTISRDNAKNSVYLQMNSLRAEDTAVYYCARDTSRGSYFDVWGAGTTVTVSS
VL: VVMTQTPLSLSVSLGDQASISCKSSQSIVHYNGNTYLEWYLQKPGQSPQLLIYKVSSRFSGVPDRFSGSGSGTDFTLKISRVEAEDLGVYYCFQGSHFPLTFGQGTKLEIKR
Molecule B18 registered a dissociation constant (Kd) of 160 pM.

B19: A81 (antibody, human IgG1, kappa, L234A L235A, V domains shown)
VH: EVQLVESGGGLVQPGGSLRLSCAASGFTFSDYYMAWVRQAPGKGLEWVANINYEGSRTDLLESLKSRFTISRDNAKNSVYLQMNSLRAEDTAVYYCARDTSRGSYFDVWGAGTTVTVSS
VL: VVMTQTPLSLPVSLGDQASISCRSSQSIVHYNEKTYLEWYLQKPGQSPQLLIYKVSNRFSGVPDRFSGSGSGTDFTLKISRVEAEDLGVYYCFQGSHFPLTFGQGTKLEIKR
B19 showed an equilibrium dissociation constant (Kd) of 290 pM.

B20: A75 (antibody, human IgG1, kappa, L234A L235A, V domains shown)
VH: EVQLVESGGGLVQPGGSLRLSCAASGFTFSDYYMAWVRQAPGKGLEWVANINYEGSRTDLLASLKSRFTISRDNAKNSVYLQMNSLRAEDTAVYYCARDTSRGSYFDVWGAGTTVTVSS
VL: VVMTQTPLSLPVSLGDQASISCRSSQSIVHYNGKTYLEWYLQKPGQSPQLLIYKVSNRFSGVPDRFSGSGSGTDFTLKISRVEAEDLGVYYCFQGSHFPLTFGQGTKLEIKR
The molecule B20 showed a Kd of 170 pM.
